According to IntAct's records for PubMed 18715118:

B1: Metallothionein expression activator (Saccharomyces cerevisiae), P21192 (parent)
chain: MDNVVDPWYINPSGFAKDTQDEEYVQHHDNVNPTIPPPDNYILNNENDDGLDNLLGMDYYNIDDLLTQELRDLDIPLVPSPKTGDGSSDKKNIDRTWNLGDENNKVSHYSKKSMSSHKRGLSGTAIFGFLGHNKTLSISSLQQSILNMSKDPQPMELINELGNHNTVKNNNDDFDHIRENDGENSYLSQVLLKQQEELRIALEKQKEVNEKLEKQLRDNQIQQEKLRKVLEEQEEVAQKLVSGATNSNSKPGSPVILKTPAMQNGRMKDNAIIVTTNSANGGYQFPPPTLISPRMSNTSINGSPSRKYHRQRYPNKSPESNGLNLFSSNSGYLRDSELLSFSPQNYNLNLDGLTYNDHNNTSDKNNNDKKNSTGDNIFRLFEKTSPGGLSISPRINGNSLRSPFLVGTDKSRDDRYAAGTFTPRTQLSPIHKKRESVVSTVSTISQLQDDTEPIHMRNTQNPTLRNANALASSSVLPPIPGSSNNTPIKNSLPQKHVFQHTPVKAPPKNGSNLAPLLNAPDLTDHQLEIKTPIRNNSHCEVESYPQVPPVTHDIHKSPTLHSTSPLPDEIIPRTTPMKITKKPTTLPPGTIDQYVKELPDKLFECLYPNCNKVFKRRYNIRSHIQTHLQDRPYSCDFPGCTKAFVRNHDLIRHKISHNAKKYICPCGKRFNREDALMVHRSRMICTGGKKLEHSINKKLTSPKKSLLDSPHDTSPVKETIARDKDGSVLMKMEEQLRDDMRKHGLLDPPPSTAAHEQNSNRTLSNETDAL

Variants of: B1
Conditions: with xpo1_yeast CRM1, P30822

| effect of a mutation on the interaction | Variant |
| --- | --- |
| decreasing interaction | S137D |
| decreasing interaction | S122D |
| disrupting interaction | S122D;S137D |
| disrupting interaction | F127V |

Variants of: B1
Conditions: with xpo1_yeast CRM1, P30822
Remark: another data set of the same source

| effect of a mutation on the interaction | Variant |
| --- | --- |
| decreasing interaction | F127V |

Variants of: B1
Conditions: with cbk1_yeast CBK1, P53894
Chain of cbk1_yeast CBK1, P53894 (P53894 whole entry): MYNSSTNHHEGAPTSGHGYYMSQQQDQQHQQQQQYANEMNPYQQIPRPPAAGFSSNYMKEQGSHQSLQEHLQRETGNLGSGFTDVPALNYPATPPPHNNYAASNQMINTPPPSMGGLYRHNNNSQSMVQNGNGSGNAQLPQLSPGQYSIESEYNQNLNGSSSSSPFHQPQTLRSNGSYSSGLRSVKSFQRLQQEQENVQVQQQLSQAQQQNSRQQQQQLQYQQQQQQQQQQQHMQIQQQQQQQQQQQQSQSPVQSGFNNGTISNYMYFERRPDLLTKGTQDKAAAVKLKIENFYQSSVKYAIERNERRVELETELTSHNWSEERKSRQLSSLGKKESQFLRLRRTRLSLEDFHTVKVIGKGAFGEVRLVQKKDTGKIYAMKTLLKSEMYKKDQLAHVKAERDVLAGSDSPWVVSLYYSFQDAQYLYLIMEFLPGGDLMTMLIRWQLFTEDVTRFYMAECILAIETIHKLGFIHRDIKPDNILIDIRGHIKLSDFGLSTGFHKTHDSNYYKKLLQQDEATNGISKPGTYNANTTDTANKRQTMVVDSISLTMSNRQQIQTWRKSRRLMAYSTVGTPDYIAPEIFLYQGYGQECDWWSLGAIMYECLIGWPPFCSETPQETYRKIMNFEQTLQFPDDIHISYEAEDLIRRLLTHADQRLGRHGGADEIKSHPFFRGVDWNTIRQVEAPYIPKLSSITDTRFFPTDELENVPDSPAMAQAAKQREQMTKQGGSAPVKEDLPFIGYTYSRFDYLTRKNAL

| effect of a mutation on the interaction | Variant |
| --- | --- |
| disrupting interaction | S113A;S122A;S137A |
| disrupting interaction | S113A;H117A;S137A |
